From patent publication US20250369960A1, “PER- AND POLYFLUORINATED ALKYL COMPOUND (PFAS) BINDING PROTEINS AND USES THEREOF” (Allonnia, LLC, priority 2022, published 2025)

Assays:
[1] = Indirect ELISA on microplates coated with BSA-PFOA conjugate; type: binding; conditions: for binding affinity to BSA-PFOA: indirect ELISA, various antibody dilutions; for response to BSA-PFOA at 1:50,000 dilution: antibody dilution 1:50,000
Protocol: Polyclonal rabbit antibodies to PFOA were prepared according to methods well known in the art. E. Harlow & D. Lane, Antibodies: A Laboratory Manual (1988) (published by Cold Spring Harbor Press, Cold Spring Harbor, N.Y.). These polyclonal antibodies were tested for their binding affinity to PFOA (FIG. 1A). PFOA was conjugated to bovine serum albumin by methods well known in the art. G.T. Hermanson, Bioconjugate Techniques (Academic Press, 785 pp., 1995). S.S. Wong, Chemistry of Protein Conjugation and Cross-Linking (CRC Press, 340 pp., 1991); G.T. Hermanson et al., Immobilized Affinity Ligand Techniques (Academic Press, 450 pp., 1992). Microplates were treated with BSA-PFOA conjugate and incubated. After washing with buffer, blocking solution was added followed by varying dilutions of monoclonal antibodies (mABs). The plate was then further incubated. After washing again, anti-rabbit secondary antibodies were added. A color reaction was developed using tetramethyl benzidine (TMB), and the reaction was read at 450 nm.
The results were consistent over various antibody dilutions.

[2] = Surface plasmon resonance, antibody on CM5 sensor chip; type: binding; conditions: for SPR signal with PFOA: PFOA between 41 ppm and 41 ppb; for type of SPR binding interaction: instant association and dissociation curve
Excerpt: Surface plasmon resonance occurs when a directed light at a specific angle of incidence excites electrons in a thin metal sheet. As a result, the electrons travel parallel to the sheet. This is related to the refractive index of the material. Even a small change alters the response, allowing SPR to be used as a techniques for detection of physical interactions between analytes. […] In this example, the antibody is bound to a sensor chip that carries a matrix of carboxymethylated dextran covalently attached to a gold surface. In this example, the chip is a CM5 sensor chip.
mAb3 (FIG. 11) and mAB5 (FIG. 12) were tested for binding with different concentrations of PFOA ([…], 10 μM, 1 μM, 0.1 μM). The concentration of PFOA tested was between ˜41 ppm and 41 ppb.

[3] = Competitive ELISA, specificity of binding to PFOA compared with octanoic acid; conditions: FIG. 5
Protocol: (§1) Microplates were treated with anti-PFOA mABs. After incubation, the wells were exposed to a biotin-PFOA conjugate and free PFOA compounds, which compete for a finite number of antibody recognition sites. Next, streptavidin-HRP conjugate was added, which binds to the biotin-PFOA molecules. The resultant color reaction was measured spectrophotometrically. P. Langer et al., 78 Proc. Nat'l Acad. Sci USA 6633-37 (1981); A. Forster et al., 13 Nucleic Acids Res. 745-61 (1985); L. Riley et al., 5 DNA 333-37 (1986); M.D. Savage et al., Avidin-Biotin Chemistry: A Handbook (Pierce Chemical Co., 467 pp., 1992). The amount of signal was inversely proportional to the concentration of free-PFOA provided. This approach determined the dynamic range of antibody detection.
Antibodies mAB3 and mAB5 were also tested for specificity of binding to PFOA as compared to known analogs, such as OA.

[4] = Competitive ELISA, conjugated PFOA versus free PFOA; type: binding; conditions: for lowest PFOA concentration detected: synthetic matrix under laboratory conditions
Protocol: as §1
Antibodies mAB3 and mAB5 were then tested for dose response to PFOA using the competitive ELISA described in FIG. 1B. The assay was performed using two carrier molecules: (1) biotin (small carrier), and (2) horse radish peroxidase (HRP; large carrier). […] Also observed was the dynamic response of the assay to 0.5 ppb (500 ppt) of PFOA.
A plasmid containing the sequence for antibody mAB3 was expressed in Expi293 cells, and the resulting antibody was purified using Protein A and gel filtration chromatography, as is well known in the art. This antibody was tested for its binding affinity to PFOA using the competitive ELISA described in FIG. 1B.

[5] = Competitive ELISA, binding affinity to other PFAS compounds
Protocol: as §1
The mAB3 produced in vitro was also tested for its binding affinity to other PFAS compounds, including PFOS, PFHxS, and PFBA.

[6] = Waveguide interferometry, antibody coupled to waveguide surface; type: binding; conditions: groundwater from a contaminated site, approximately 7.5 ppb PFOA, compared with 2 ppb PFOA signal
Protocol: The device combines two very sensitive methods, waveguiding and interferometry, to form waveguide interferometry technology used in rapid low-level detection sensing applications. In optical interferometry, small changes in refractive index are measured along the pathway of an optical beam of light during its propagation. As the light propagates, it generates an optical electromagnetic field, a small fraction of which-known as the evanescent field-enables detection by interacting with the changes in refractive index occurring on the waveguide cover layer. […] As PFAS is introduced to the functionalized waveguide, PFAS binding to the antibody displaces the sample solution near the waveguide surface, changing the light beam's velocity. Simultaneously, an adjacent reference beam is left unperturbed and is optically combined with the sensing beam to measure the velocity change. This creates an interference pattern that shifts as the refractive index changes, producing a corresponding change in the relative phase measurement.
Binding of PFAS binding proteins to PFAS was tested using interferometry. Specifically, binding of anti-PFOA antibody mAB5 to PFOA was measured by comparing the interferometry signal for a 1% methanol PBS buffer containing either 0 ppb PFOA (negative control; FIG. 14A) or 2 ppb PFOA (test sample; FIG. 14B). […]

| binding affinity to BSA-PFOA [1] | type of SPR binding interaction [2] | Molecule | SPR signal with PFOA [2] | response to BSA-PFOA at 1:50,000 dilution [1] | lowest PFOA concentration detected [4] | further results |
| --- | --- | --- | --- | --- | --- | --- |
| no significant binding affinity | – | mAB2: rabbit anti-PFOA monoclonal antibody, heavy chain variable SEQ ID NO: 16, light chain variable SEQ ID NO: 21 (antibody, listed as Oryctolagus cuniculus, V domains shown) VH: QSVKESEGGLFKPTDNLTLTCAVSRFSLSSYGVSWVRQAPGNGLEWIGYIYTDGSAYYASWAKSRSTITRNTNLNTVTLKMTSLTAADTATYFCARHSSGWGIDYFNVWGPGTLVTVSS VL: AAVLTQTPSSVSAAVGGTVTINCQASQSVYNNNYLSWYQQKPGQPPKLLIYLASTLASGVPSRFSGSGSGTEFTLTISDLECDDGATYYCAGGVTSSDRPFGGGTEVVVKG | – | – | – | – |
| no significant binding affinity | – | mAB4: rabbit anti-PFOA monoclonal antibody, heavy chain variable SEQ ID NO: 18, light chain variable SEQ ID NO: 23 (antibody, listed as Oryctolagus cuniculus, V domains shown) VH: QEQLEESRGGLIKPTDTLTLTCTASGFSLSNYGINWVRQAPGEGLEWIGAIRGSGFIYYATWAKSRSTITRNTNLNTVTLKMTSLTAADTATYFCARRDGLYSAMDPWGPGTLVTVSS VL: DPVLTQTPSSTSAAVGGTVTISCQSSDSVYKNNYLAWFQQKPGQPPKVLIYHASKLASGVPSRFSGSGSGTQFTLTISGVQCDDAATYYCLGEYSDTHVFGGGTEVVVKG | – | – | – | – |
| best binding affinity | steady-state interaction | mAB3: rabbit anti-PFOA monoclonal antibody, heavy chain variable SEQ ID NO: 17, light chain variable SEQ ID NO: 22 (antibody, listed as Oryctolagus cuniculus, V domains shown) VH: QSLEESEGGLFKPGGTLTLTCTVSGFSLNIYSISWVRQAPGKELEWIGTMSNVDATYYANWAKSRSTITRNINESTVTLKMPSLTVADTATYFCARYIYGAGYDIWGPGTLVTVSS VL: ADIVMTQTPASVEAAVGGTVTIKCQASQSISSWLSWYQQKPGQPPKLLIYKASTLASGVPSRFKGSGSGTEYTLTISGVQCADAATYYCQSVYYSSSTNYGNTFGGGTEVVVKG | concentration dependent signal | very depressed | 0.5 ppb | response to BSA-PFOA at 1:25,000 dilution compared with 1:5,000 ([1]; antibody dilution 1:25,000 vs 1:5,000): approximately four-fold lower; affinity to OA as compared to PFOA [3]: six-fold lower; binding affinity to PFOA ([4]; antibody expressed in Expi293 cells, purified using Protein A and gel filtration chromatography): about 1 ppt; binding affinity to PFOA ([4]; antibody isolated from rabbit serum): about 500 ppt; binding to PFOS and other PFAS compounds in addition to PFOA ([5]; FIG. 9): can bind; binding affinity to PFOS as compared to PFOA ([5]; purified antibody produced in vitro): 99% |
| best binding affinity | steady-state interaction | mAB5: rabbit anti-PFOA monoclonal antibody, heavy chain variable SEQ ID NO: 19, light chain variable SEQ ID NO: 24 (antibody, listed as Oryctolagus cuniculus, V domains shown) VH: QSVKESEGGLFKPTDTLTLTCTASGFSLSSYGVIWVRQAPGKGLQWIGFINIYGTPSYASWAMGRSTITGNTNLNTVILKMTSLTVADTATYFCASSVGSDGYLYSSDIWGPGTLVTVSS VL: DPVLTQTPSSVSAAVGGTVTINCQASQSVYNNKCLAWYQQKPGQPPKLLIYGASTLASGVPSRFSGSGSGTQFTLTISDLECDDAATYYCAGGYYSEIHFGGGTEVVVKG | concentration dependent signal | negligible | 0.5 ppb | interferometry signal in groundwater [6]: consistent and approximately proportional to the concentration of PFOA; response to PFOA versus OA [3]: 78 fold |
| no significant binding affinity | – | mAB1: rabbit anti-PFOA monoclonal antibody, heavy chain variable SEQ ID NO: 15, light chain variable SEQ ID NO: 20 (antibody, listed as Oryctolagus cuniculus, V domains shown) VH: QSVKESEGGLFKPTDTLTLTCTASGFSLSSYGVSWVRQAPGNGLEWIGSIEDGGSAYYASWAKSRSTITSNTNLNTVTLQMTSLTAADTATYFCGSLSIGSAYPGIWGPGTLVTVSS VL: AIVMTQTPSSKSVPVGDTVTIKCQASQSIGTRLAWFQQKPGQPPKRLIYSASTLASGVPSRFSGSGSGTQFTLTISDVVCDDAAAYYCGGYKSSSSDGIAFGGGTEVVVKG | – | – | – | – |
